The values below come from patent publication US20190048340 (CRISPR Therapeutics AG, published 2019).

The data set concerns the target Cpf1 (FnCpf1, FTN_1397) wild type (Francisella novicida U112, UniProt A0Q7Q2 SEQ:1-1300). Nature of the data set: EMSA; PAM YTN (TTA); 37 C. The settings on record: tags: N-terminal 6xHis (pET-16b); label: 5'-32P; repeat hairpin. A general note: A gel shift assay detects complexes by their altered migration in electrophoresis.

Sequence of Cpf1 (FnCpf1, FTN_1397) wild type (A0Q7Q2 whole entry): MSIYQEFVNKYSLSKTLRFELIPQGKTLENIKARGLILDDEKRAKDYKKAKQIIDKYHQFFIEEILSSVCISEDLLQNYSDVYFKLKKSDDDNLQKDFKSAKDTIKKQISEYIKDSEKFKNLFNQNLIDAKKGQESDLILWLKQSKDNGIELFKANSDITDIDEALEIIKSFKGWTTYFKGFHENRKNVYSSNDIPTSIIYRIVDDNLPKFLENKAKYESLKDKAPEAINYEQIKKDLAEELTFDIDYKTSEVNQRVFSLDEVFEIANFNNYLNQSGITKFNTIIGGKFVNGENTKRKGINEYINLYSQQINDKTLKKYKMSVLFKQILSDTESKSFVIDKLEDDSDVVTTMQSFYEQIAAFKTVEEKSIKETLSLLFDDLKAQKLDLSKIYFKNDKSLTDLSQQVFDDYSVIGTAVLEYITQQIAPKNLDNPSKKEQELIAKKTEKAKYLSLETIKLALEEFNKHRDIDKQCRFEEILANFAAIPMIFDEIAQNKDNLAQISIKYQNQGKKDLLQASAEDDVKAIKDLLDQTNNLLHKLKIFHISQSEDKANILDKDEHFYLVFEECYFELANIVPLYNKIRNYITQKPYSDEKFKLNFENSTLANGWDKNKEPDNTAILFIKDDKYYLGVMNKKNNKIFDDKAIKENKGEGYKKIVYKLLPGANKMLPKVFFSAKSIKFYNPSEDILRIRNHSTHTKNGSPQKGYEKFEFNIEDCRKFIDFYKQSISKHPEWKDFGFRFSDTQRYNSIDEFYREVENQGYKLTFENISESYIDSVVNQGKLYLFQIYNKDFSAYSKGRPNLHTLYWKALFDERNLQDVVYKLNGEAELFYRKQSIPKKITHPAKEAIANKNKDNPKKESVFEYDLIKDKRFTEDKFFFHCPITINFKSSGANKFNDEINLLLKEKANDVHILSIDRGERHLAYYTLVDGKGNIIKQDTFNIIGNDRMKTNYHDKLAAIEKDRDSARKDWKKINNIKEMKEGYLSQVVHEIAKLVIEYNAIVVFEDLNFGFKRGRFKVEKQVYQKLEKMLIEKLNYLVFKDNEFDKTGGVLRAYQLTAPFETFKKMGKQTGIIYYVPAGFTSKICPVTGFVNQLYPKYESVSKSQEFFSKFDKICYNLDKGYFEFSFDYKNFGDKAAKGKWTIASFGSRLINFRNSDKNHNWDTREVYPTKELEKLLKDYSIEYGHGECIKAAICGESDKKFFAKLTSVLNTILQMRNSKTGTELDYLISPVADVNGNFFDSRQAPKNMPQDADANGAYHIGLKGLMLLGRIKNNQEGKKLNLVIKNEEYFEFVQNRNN

B1: crRNA-sp5 repeat-spacer full-length (RNA 4); ref is antisense T7 transcription template ; Psp5 oligonucleotide duplex (ssRNA ; dsDNA)
RNA: GGGUCUAAGAACUUUAAAUAAUUUCUACUGUUGUAGAUAGAUUAAAAGGUAAUUCUAUCUUGUUGAG
DNA 1: AGCTGTAGCAAATATTAATCATATAGAAGAAAGCTCAGATCTCAACAAGATAGAATTACCTTTTAATCTTAAATTATTATATCCAGAAACTATTGATGGTAATTTACTTATC
DNA 2: AGCTGATAAGTAAATTACCATCAATAGTTTCTGGATATAATAATTTAAGATTAAAAGGTAATTCTATCTTGTTGAGATCTGAGCTTTCTTCTATATGATTAATATTTGCTAC
What is called Kd is a measure of binding affinity in units of concentration. The low end stands for higher affinity, the high end for lower affinity. Molecule B1 yielded a Kd of 50 nM.
